The target of experiment [1] is T1, Rab8a6-176(GppNHp) (Homo sapiens, UniProt P61006).
T1 construct: Expression and purification of Rab8a6-176 was performed analog to full-length Rab8a; made in house
T1 sequence (P61006 6-176): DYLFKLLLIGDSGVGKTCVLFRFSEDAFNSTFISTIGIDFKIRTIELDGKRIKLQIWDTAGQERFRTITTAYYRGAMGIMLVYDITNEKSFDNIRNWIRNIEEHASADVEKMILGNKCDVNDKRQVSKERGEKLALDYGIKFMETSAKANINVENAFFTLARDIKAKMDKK
As to the kind of experiment: Competition fluorescence polarization assay (displacement of labelled peptide 25). It counts as binding. To be noted: for Competition with labelled peptide 25 (in words): excess of acetylated peptide added to complex of labelled peptide 25 and Rab8a6-176(GppNHp). The procedure: Acetylated peptides were serially diluted and incubated with a mixture of the fluorescein-labelled peptide and Rab8a6–176 (GppNHp) at room temperature for 1 h. Fluorescence polarization was determined and IC50 values were calculated by nonlinear regression analysis using Prism 5.0 software (GraphPad)[64].
Rab8a6-176 (GppNHp) was serially diluted in assay buffer and treated with 133 nM fluorescein-labeled peptide. After incubation for 4 h at room temperature the mixture was soaked into capillaries for microscale thermophoresis (MST) measurements. Kd values were calculated after initial fluorescene analysis of the obtained MST curves using the software Monolith Affinity Analysis (NanoTemper Technologies).
Competition fluorescence polarization assay
Acetylated peptides were serially diluted in assay buffer (1:1) and were incubated with a mixture of […] fluorescein-labeled peptide and Rab8a6-176 (GppNHp) (15 µM or 100 µM depending on Kd of the labeled peptide) for 1 h at room temperature.
Fluorescence polarization was dertermined and half maximal inhibitory concentrations (IC50) were calculated by nonlinear regression analysis of dose-response curves using Prism 5.0 software (GraphPad).5
(In general: In fluorescence polarisation assays a small probe gives low polarisation when free and higher when bound to something large.)

Experiment [2] concerns the target T2, peptide 28 (Homo sapiens, UniProt Q6IQ26).
T2 chain: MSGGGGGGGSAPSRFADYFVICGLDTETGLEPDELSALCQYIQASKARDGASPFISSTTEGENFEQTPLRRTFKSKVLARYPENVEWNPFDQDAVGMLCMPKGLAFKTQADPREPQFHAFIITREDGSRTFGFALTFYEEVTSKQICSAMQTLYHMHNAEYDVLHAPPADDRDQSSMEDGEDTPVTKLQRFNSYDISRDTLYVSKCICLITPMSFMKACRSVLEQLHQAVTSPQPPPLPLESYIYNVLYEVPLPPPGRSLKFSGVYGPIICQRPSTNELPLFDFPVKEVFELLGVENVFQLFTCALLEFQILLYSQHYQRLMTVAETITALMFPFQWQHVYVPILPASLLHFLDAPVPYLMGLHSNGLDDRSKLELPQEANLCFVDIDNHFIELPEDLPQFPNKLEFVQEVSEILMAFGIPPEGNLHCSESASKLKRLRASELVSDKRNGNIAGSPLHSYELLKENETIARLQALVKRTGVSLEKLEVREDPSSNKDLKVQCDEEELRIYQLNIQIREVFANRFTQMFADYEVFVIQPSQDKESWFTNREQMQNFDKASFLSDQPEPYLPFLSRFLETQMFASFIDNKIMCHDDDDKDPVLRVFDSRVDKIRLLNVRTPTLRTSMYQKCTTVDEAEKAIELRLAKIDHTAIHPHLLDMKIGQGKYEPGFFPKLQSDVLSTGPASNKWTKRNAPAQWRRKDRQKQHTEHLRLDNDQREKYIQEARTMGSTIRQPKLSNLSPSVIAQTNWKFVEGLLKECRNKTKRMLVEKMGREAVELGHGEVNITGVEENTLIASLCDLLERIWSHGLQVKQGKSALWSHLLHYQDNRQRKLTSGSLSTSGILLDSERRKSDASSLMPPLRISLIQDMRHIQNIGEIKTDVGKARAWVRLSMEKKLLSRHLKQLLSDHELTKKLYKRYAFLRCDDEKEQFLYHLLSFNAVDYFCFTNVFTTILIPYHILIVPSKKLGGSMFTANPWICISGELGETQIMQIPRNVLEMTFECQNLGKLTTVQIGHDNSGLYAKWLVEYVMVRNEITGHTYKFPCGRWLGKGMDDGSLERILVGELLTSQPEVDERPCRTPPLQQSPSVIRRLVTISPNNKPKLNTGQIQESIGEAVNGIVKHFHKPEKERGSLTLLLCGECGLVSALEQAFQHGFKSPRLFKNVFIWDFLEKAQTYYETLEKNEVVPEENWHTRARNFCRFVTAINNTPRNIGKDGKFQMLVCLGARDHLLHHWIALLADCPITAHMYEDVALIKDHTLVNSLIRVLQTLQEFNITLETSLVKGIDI
As to the kind of experiment: fluorescence polarization.

Experiment [3] deals with T3, peptide 25 (Homo sapiens, UniProt Q6IQ26).
T3 chain: T2 chain
As to the kind of experiment: microscale thermophoresis (fluorescence intensity). (Microscale thermophoresis detects binding through changes in fluorescence in a small temperature gradient.)

In experiment [4] the target is T3, peptide 25. As to the kind of experiment: fluorescence polarization.
Experiment [5] deals with T4, StRIP3 (Homo sapiens, UniProt Q6IQ26).
T4 chain: T2 chain
Kind of experiment: fluorescence polarization.

Experiment [6] addresses T4, StRIP3. Kind of experiment: competition fluorescence polarization.
Experiment [7] concerns the target T5, peptide 21 (Homo sapiens, UniProt Q6IQ26).
T5 chain: T2 chain
Kind of experiment: fluorescence polarization.

Bridge positions count the residues as written; N and C are the ends. Square brackets hold non-standard residues; d marks the D form. Peptide text beside a SMILES is read from it. S5 = C=CCCC[C@](C)(N)C(=O)O

As to `CC(=O)N[C@@H](CC(=O)O)C(=O)N[C@@H](CC(=O)O)C(=O)N[C@@H](CCC(=O)O)C(=O)N[C@@]1(C)CCC/C=C\CCC[C@@](C)(C(=O)N[C@@H](Cc2ccc(O)cc2)C(=O)N[C@@H](Cc2c[nH]cn2)C(=O)N[C@@H](CC(C)C)C(=O)N[C@@H](CC(C)C)C(=O)N[C@@H](CO)C(=O)N[C@@H](Cc2ccccc2)C(=O)N[C@@H](CC(N)=O)C(=O)N[C@@H](C)C(=O)N[C@H](C(N)=O)C(C)C)NC(=O)[C@H](Cc2ccccc2)NC(=O)[C@H](CCC(N)=O)NC(=O)[C@H](CCC(=O)O)NC1=O` [acetylated StRIP3] (Ac-DDE[S5]EQF[S5]YHLLSFNAV-NH2; staple (Z) 4-8; C-terminus assumed), the IC50 (in general, the concentration at which inhibition is half-maximal) in experiment [1] (acetylated peptide as competitor, fluorescein-labelled peptide 25 (60 nM) bound to Rab8a(GppNHp) 15 μM, 1 h room temperature, triplicates, errors 1σ) came out at 33 µM. Also, in experiment [1], the “Competition with labelled peptide 25 (in words)” value is “full displacement of peptide 25”.

As to `CC(=O)N[C@@H](CC(=O)O)C(=O)N[C@@H](CC(=O)O)C(=O)N[C@@H](CCC(=O)O)C(=O)N[C@@H](CCCCN)C(=O)N[C@@H](CCC(=O)O)C(=O)N[C@@H](CCC(N)=O)C(=O)N[C@@H](Cc1ccccc1)C(=O)N[C@@H](CC(C)C)C(=O)N[C@@H](Cc1ccc(O)cc1)C(=O)N[C@@H](Cc1c[nH]cn1)C(=O)N[C@@H](CC(C)C)C(=O)N[C@@H](CC(C)C)C(=O)N[C@@H](CO)C(=O)N[C@@H](Cc1ccccc1)C(=O)N[C@@H](CC(N)=O)C(=O)N[C@@H](C)C(=O)N[C@H](C(N)=O)C(C)C` [wt-R6IP] (Ac-DDEKEQFLYHLLSFNAV-NH2; N-terminus and C-terminus assumed), in experiment [1], the “Competition with labelled peptide 25 (in words)” value is given as “does not compete with peptide 25”.

B1: Rab8a 6-176 (protein)
chain: T1 sequence (P61006 6-176)
modifications: GppNHp-bound Rab8a; bicyclic alkyne/olefin crosslinked StRIP3 derivative, fluorescein-PEG label
As for B1, the Kd (as a rule, the free concentration of one partner at which half of the binding sites on the other are occupied at equilibrium, for simple one-to-one binding) in experiment [2] stood at 9.6 µM.

B2: Rab8a 6-176 (protein)
chain: T1 sequence (P61006 6-176)
modifications: GppNHp-bound Rab8a; bicyclic olefin/alkyne crosslinked StRIP3 derivative, fluorescein-PEG label
With B2, the values for the Kd in experiment [3] and in experiment [4] were 11 µM and 6.6 µM, respectively.

B3: Rab8a 6-176 (protein)
chain: T1 sequence (P61006 6-176)
modifications: GppNHp-bound Rab8a; i,i+4 olefin hydrocarbon-stapled peptide, fluorescein-PEG label
In the case of B3, in experiment [5], the dissociation constant (Kd) is 20.7 µM.

B4: Rab8a 6-176 (protein)
chain: T1 sequence (P61006 6-176)
modifications: GppNHp-bound Rab8a; acetylated i,i+4 olefin hydrocarbon-stapled peptide
B4: the IC50 in experiment [6] was determined as 33 µM.

B5: Rab8a 6-176 (protein)
chain: T1 sequence (P61006 6-176)
modifications: GppNHp-bound Rab8a; dibrominated olefin macrocyclic StRIP3 derivative, fluorescein-PEG label
In the case of B5, binding in experiment [7] was put at a Kd of 10.7 µM.

The values are drawn from PMC4834642, “Orthogonal ring-closing alkyne and olefin metathesis for the synthesis of small GTPase-targeting bicyclic peptides” (Nature Communications, 2016).
